From patent US8133978 (GlaxoSmithKline, dated 2012)

What was measured:
[1] = target: T1, Human interleukin-18 (recombinant human IL-18) (human, UniProt Q14116 37-193); experiment: ELISA, antibody on plate, human IL-18 captured, detected by 16D10; 37 C, blocking buffer
T1 construct: also called hIL-18
T1 sequence: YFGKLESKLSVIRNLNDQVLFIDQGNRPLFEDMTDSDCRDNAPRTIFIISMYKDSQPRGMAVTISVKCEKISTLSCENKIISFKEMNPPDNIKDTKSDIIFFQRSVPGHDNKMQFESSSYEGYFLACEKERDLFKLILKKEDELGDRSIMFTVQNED
Protocol: (§1) ELISA was carried out with the three Humanised H1 variants; H1L1, H1L2 and H1L3 to assess binding to human IL-18 at room temperature and at 37° C. in both human serum and in block solution (PBS 0.05% TWEEN with 1% BSA (w/v)). The Humanised antibody variants were immobilised on Nunc Maxisorp 96-well plates at 2.5 µg/ml. Capture of 5 ng/ml of recombinant human IL-18 was carried out either at room temperature or 37° C. in human serum or block solution. Anti-IL-18 mouse monoclonal antibody 16D10 was added. The bound mouse antibody was detected using anti-mouse kappa peroxidase conjugate (Serotec MCA 1291P). Representative EC50 values generated from the study data are illustrated in Table 9.

[2] = target: T1, Human interleukin-18 (recombinant human …); experiment: ELISA, IL-18 bp-Fc coated at 0.5 ug/ml, human IL-18 added at 100 ng/ml, antibody titrated, detection anti-human kappa HRP, Abs 490 nm
[3] = target: T1, Human interleukin-18 (recombinant human …); experiment: cell-based or functional assay
[4] = target: T1, Human interleukin-18 (recombinant human …); experiment: SPR, Biacore T100, Protein A capture, 25 C, mean n = 4
Protocol: (§2) The methodology was basically the same as for the method used in Example 4a above; Protein A was immobilised on a CM5 chip at densities of between 2000-6000 RU's by primary amine coupling. Runs were carried out in HBS-EP (Biacore™). The anti-IL-18 antibodies were captured to densities of between 100-500 RUs, human IL-18 was passed over this captured surface at concentrations between 16-0.0625 nM, with 0 nM concentration (i.e., a buffer only injection of captured antibody) used for double referencing. Regeneration after each injection of IL-18 was by mild acidic elution using two injections of 10 mM glycine, pH1.5. […] The binding curves obtained were analysed using the analysis software inherent to the T100 machine using the 1:1 model of binding. Runs were carried out at the temperatures indicated.
(§3) These experiments were carried out as described above. Table 6 details the kinetic parameters obtained. […] H1L2 has a better on-rate (ka) than H1L1.

Rhesus IL-18 = target: T2, Rhesus IL-18 (rhesus (rhesus/cynomolgus)); experiment: Rhesus IL18 binding ELISA, antibody titrated, OD 490 nm
T2 construct: also called Rhesus/Cynomolgus IL-18; rhesus/cynomolgus IL-18

[5] = target: T1, Human interleukin-18 (recombinant human …); experiment: SPR, Biacore 3000, antibody captured on Protein A, 25 C
Protocol: Biacore™ kinetic analysis of the humanised 2C10 antibodies was carried out on a Biacore™ 3000 instrument using Protein A capture of the antibodies in HBS-EP buffer (Biacore™). Briefly, Protein A was immobilised on a CM5 chip by primary amine coupling, using manufacturers recommended protocol, to densities around 2000-4000 resonance units (RU's). Humanised antibody was then passed over the Protein A surface and captured to levels of around 200-500 RU's, after a period of stabilisation, IL-18 (human or Rhesus) was passed over the captured antibody surface at defined concentrations and binding sensorgrams were obtained. […] All curves were double referenced against a buffer injection instead of IL-18 and the data was fitted to the 1:1 binding model using the global fit parameters in BiaEval 4.1. Off-rate ranking experiments were set up using the same Protein A capture method, however, only a single concentration of IL-18 was used (10 nM). Whilst the data was fitted using the same binding model as the kinetic analysis, since only one concentration of analyte was used on the off-rate is reported, this value is useful for ranking rather than giving an exact kinetic measurement and was used as a way of selecting which antibodies would be further investigated. […]

[6] = target: T1, Human interleukin-18 (recombinant human …); experiment: SPR, Biacore T100, antibody captured on Protein A, 32 C
Protocol: as §2
(§4) This experiment was carried out using the above method at various temperatures. […] Table 5 details the kinetic values used to create these figures.

[7] = target: T1, Human interleukin-18 (recombinant human …); experiment: SPR, Biacore T100, antibody captured on Protein A, 37 C
Protocol: as §2, §4

[8] = target: T1, Human interleukin-18 (recombinant human …); experiment: ELISA, antibody on plate, human IL-18 captured, detected by 16D10; 37 C, in serum
Protocol: as §1

[9] = target: T1, Human interleukin-18 (recombinant human …); experiment: SPR, Biacore T100, antibody captured on Protein A, 15 C
[10] = target: T1, Human interleukin-18 (recombinant human …); experiment: SPR, Biacore T100, Protein A capture, 37 C, mean n = 6
Protocol: as §2, §3

[11] = target: T1, Human interleukin-18 (recombinant human …); experiment: ELISA, antibody on plate, human IL-18 captured, detected by 16D10; room temperature, blocking buffer
Protocol: as §1

[12] = target: T1, Human interleukin-18 (recombinant human …); experiment: SPR, Biacore T100, antibody captured on Protein A, 20 C
Protocol: as §2, §4

[13] = target: T1, Human interleukin-18 (recombinant human …); experiment: SPR, Biacore T100, antibody captured on Protein A, 25 C
Protocol: as §2, §4

B1: H1L2 humanised anti-IL-18 antibody (antibody, human IgG1, kappa, V domains shown)
VH: QVQLVQSGAEVKKPGASVKVSCKVSGEISTGYYFHWVRQAPGKGLEWMGRIDPEDDSTKYAERFKDRVTMTEDTSTDTAYMELSSLRSEDTAVYYCTTWRIYRDSSGRPFYVMDAWGQGTLVTVSS
VL: DIQMTQSPSSVSASVGDRVTITCLASEDIYTYLTWYQQKPGKAPKLLIYGANKLQDGVPSRFSGSGSGTDYTLTISSLQPEDFATYYCLQGSKFPLTFGQGTKLEIKR
notes: Human IgG1 / kappa
**Q.** Which EC50 [1] does the source give for B1 here?
**A.** 3.4 ng/mL

**Q.** And the “EC50 (read off the curve)” value [2]?
**A.** ~40 ng/mL

**Q.** And the “% change vs 2C10 (IC50, KG-1 bioassay)” value [3]?
**A.** 61.5%

**Q.** What about the Kd [4] of the same binder?
**A.** 0.0163 nM

**Q.** What about the “EC50 (read off the curve)” value (Rhesus IL-18) of the same binder?
**A.** ~30 ng/mL

**Q.** What about the Kd [5] of the same binder?
**A.** 0.0303 nM

**Q.** What about the Kd [6] of the same binder?
**A.** 0.0189 nM

**Q.** What about the Kd [7] of the same binder?
**A.** 0.0223 nM

**Q.** And the EC50 [8]?
**A.** 9.79 ng/mL

**Q.** What about the Kd [9] of the same binder?
**A.** 0.01 nM

**Q.** And the Kd [10]?
**A.** 0.046 nM

**Q.** And the EC50 [11]?
**A.** 3.55 ng/mL

**Q.** And the Kd [12]?
**A.** 0.0089 nM

**Q.** What about the Kd [13] of the same binder?
**A.** 0.0125 nM
